No end group written: not given here.
Target: T1, Ab2B
T1 construct: The variable domains are the same in both; also called antibody Ab2B
Test: Biacore; Ab2B captured on anti-human Fab chip, peptide as analyte
Protocol: Anti-human Fab was ligated to Biacore chips at pH 4.5. […] TBPs were flowed through the chip as analytes at 30 μL/min. 10 mM glycine at pH 1.5 was used for regeneration of the chip. Conditions were optimized as needed.

T1 sequence (heavy, as listed by the source, chain 1 of 2): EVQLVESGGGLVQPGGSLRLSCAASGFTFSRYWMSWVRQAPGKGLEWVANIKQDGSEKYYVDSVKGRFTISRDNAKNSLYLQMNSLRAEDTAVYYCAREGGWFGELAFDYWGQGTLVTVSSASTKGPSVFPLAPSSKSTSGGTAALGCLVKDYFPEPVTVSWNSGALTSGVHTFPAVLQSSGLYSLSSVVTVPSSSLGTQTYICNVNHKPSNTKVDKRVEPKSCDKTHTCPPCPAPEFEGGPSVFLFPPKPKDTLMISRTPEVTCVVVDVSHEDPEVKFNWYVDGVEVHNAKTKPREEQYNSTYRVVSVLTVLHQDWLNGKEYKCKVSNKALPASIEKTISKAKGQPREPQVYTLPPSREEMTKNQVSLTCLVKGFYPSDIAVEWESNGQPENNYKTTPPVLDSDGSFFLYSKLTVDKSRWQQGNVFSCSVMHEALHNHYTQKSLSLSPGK
T1 sequence (light, as listed by the source, chain 2 of 2): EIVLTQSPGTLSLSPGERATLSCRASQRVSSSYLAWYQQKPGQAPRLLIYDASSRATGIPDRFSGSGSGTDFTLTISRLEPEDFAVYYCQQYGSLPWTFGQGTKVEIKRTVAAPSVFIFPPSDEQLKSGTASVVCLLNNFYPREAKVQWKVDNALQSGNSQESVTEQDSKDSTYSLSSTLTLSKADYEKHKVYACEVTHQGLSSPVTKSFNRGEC

## {NH2‑(PEG)12}-RSQSRSRYYRQRQRSRRRRRRS (also called TBPA) [SEQ ID NO: 151]
  binding result: no binding (tested: 50.0~0.8 nM analyte range)

— patent US20240189442A1 (ALLYGEN GROUP, published 2024)
